Assays:
[1] = in vivo; cited from earlier work
[2] = tested on: subcutaneously implanted F9 murine teratocarcinoma; test: Biodistribution of radiolabeled L19-mTNFα fusion protein in tumor-bearing mice; assay type: in vivo, mouse; settings: F9 tumor-bearing 129 mice
Description: (§1) Purified L19-mTNFα was radiolabeled with iodine-125 using the Iodogen method (Salacinski et al., Anal. Biochem., 117: 136, 1981)(Pierce, Rockford, Ill.). After labelling, the immunoreactivity was more than 90%. 129 mice with subcutaneously implanted F9 murine teratocarcinoma were intravenously injected with 4 μg (2 μCi) of protein in 100 μl saline solution. Three animals were used for each time point. Mice were sacrificed at 3, 6, 24 and 48 hours after injection. The organs were weighed and the radioactivity was counted. All organs and tumors were placed in fixative for histological analysis and microautoradiography. Targeting results of representative organs are expressed as percent of the injected dose per gram of tissue (% ID/g).

[3] = tested on: C51 murine colon carcinoma; test: In vivo treatment with L19-mTNFα fusion protein; parameters: species or system mouse
Description: Treatment with purified L19-mTNFα fusion protein was preformed in groups of 3 Balb.C mice each injected subcutaneously with 10^6 of C51 cells. At day 12 after C51 cell injection, 0.8 μg/g of L19-TNFα fusion protein was injected into the tail vein of each animal. A similar group of 3 animals was injected with Phosphate Saline Buffer, pH 7.4 (PBS). The animals were followed for systemic toxicity (weight loss) and tumor growth daily for 6 days. At the end, animals were sacrificed and tumors were placed in fixative for histological analysis and snap frozen for immunohistochemical analysis.
The efficacy of the L19-mTNFα fusion protein in suppressing tumor growth was tested on one experimental tumor model of mouse adenocarcinoma, C51. For tumor induction, 10^6 C51 cells were injected subcutaneously in Balb/C animals. After 12 days (when the tumor reaches approximately 100-200 mm^3) animals received intravenous injections of either PBS (3 animals) or L19-mTNFα fusion protein (3 animals). The animals were monitored for weight and tumor growth daily for 6 days. […] The weight loss was always less than 6% throughout the experiment time.

[4] = tested on: blood vessels of glioblastoma tumor; test: Immunohistochemistry on glioblastoma tumor
Description: (§2) Tumor and organ specimens were processed for microautoradiography to assess the pattern of ^125I-L19-IL2 fusion protein distribution within the tumors or organs as described by Tarli et al. 1999 (12). Immunohistochemical procedures were carried out as reported by Castellani et al. 1994 (11). The nonparametric Mann-Whitney test was used to assess the differences in tumor weights between the three different groups of animals (mice treated with L19-IL2 fusion protein, with mixture of L19+IL2 and PBS).
(§3) Tumor and organ specimens were processed for microautoradiography to assess the pattern of ^125I-L19TNFα fusion protein distribution within the tumors or organs as described by Tarli et al (Blood, 94: 192-198, 1999). Immunohistochemical procedures were carried out as reported by Castellani et al (Int. J. Cancer, 59: 612-618, 1994).

[5] = tested on: blood vessels of the F9 mouse tumor; test: Microautoradiography of tumors and organs of F9 tumor-bearing mice; assay type: in vivo
Description: as §2, §3

[6] = biological target: ED-B domain of fibronectin (Homo sapiens, UniProt P02751); test: Immunoreactivity of L19-mTNFα after radiolabelling; assay type: binding; parameters: recombinant ED-B domain of human Fibronectin (FN) as antigen; made in house; settings: iodine-125, Iodogen method
Chain of ED-B domain of fibronectin (P02751 1271-1359 limits assumed): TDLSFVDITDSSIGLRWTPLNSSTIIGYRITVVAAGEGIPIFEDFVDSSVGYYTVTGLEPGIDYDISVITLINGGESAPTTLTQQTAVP
Description: as §1

TNFα
plasma half-life [1]: less than 30 minutes

L19-mTNFα fusion protein: fusion of mouse TNFα to the scFv L19 via a 15 amino acid linker
% ID/g Bladder ([2]; 3 h after i.v. injection): 37.52 ± 26.7 % ID/g
% ID/g Blood ([2]; 3 h after i.v. injection): 8.39 ± 5.0 % ID/g
% ID/g Heart ([2]; 3 h after i.v. injection): 2.69 ± 0.7 % ID/g
% ID/g Kidney ([2]; 3 h after i.v. injection): 7.96 ± 3.0 % ID/g
% ID/g Liver ([2]; 3 h after i.v. injection): 8.42 ± 1.9 % ID/g
% ID/g Lung ([2]; 3 h after i.v. injection): 6.56 ± 1.7 % ID/g
% ID/g Muscle ([2]; 3 h after i.v. injection): 1.33 ± 0.3 % ID/g
% ID/g Skin ([2]; 3 h after i.v. injection): 2.83 ± 1.3 % ID/g
% ID/g Spleen ([2]; 3 h after i.v. injection): 9.08 ± 2.0 % ID/g
% ID/g Thyroid ([2]; 3 h after i.v. injection): 3.21 ± 0.8 % ID/g
% ID/g Tumor ([2]; 3 h after i.v. injection): 22 % ID/g
% ID/g Tumor ([2]; 3 h after i.v. injection, listed as L19-TNFa fusion protein): 22.02 ± 2.3 % ID/g
% ID/g Bladder ([2]; 6 h after i.v. injection): 18.14 ± 9.1 % ID/g
% ID/g Blood ([2]; 6 h after i.v. injection): 2.13 ± 0.9 % ID/g
% ID/g Heart ([2]; 6 h after i.v. injection): 1.32 ± 0.5 % ID/g
% ID/g Kidney ([2]; 6 h after i.v. injection): 6.06 ± 5.2 % ID/g
% ID/g Liver ([2]; 6 h after i.v. injection): 2.39 ± 0.9 % ID/g
% ID/g Lung ([2]; 6 h after i.v. injection): 2.79 ± 1.4 % ID/g
% ID/g Muscle ([2]; 6 h after i.v. injection): 0.76 ± 0.2 % ID/g
% ID/g Skin ([2]; 6 h after i.v. injection): 1.68 ± 0.9 % ID/g
% ID/g Spleen ([2]; 6 h after i.v. injection): 3.29 ± 0.9 % ID/g
% ID/g Thyroid ([2]; 6 h after i.v. injection): 2.91 ± 1.8 % ID/g
% ID/g Tumor ([2]; 6 h after i.v. injection): 11.57 ± 2.7 % ID/g
% ID/g Bladder ([2]; 24 h after i.v. injection): 2.9 ± 2.2 % ID/g
% ID/g Blood ([2]; 24 h after i.v. injection): 0.09 ± 0.0 % ID/g
% ID/g Heart ([2]; 24 h after i.v. injection): 0.06 ± 0.0 % ID/g
% ID/g Kidney ([2]; 24 h after i.v. injection): 0.18 ± 0.0 % ID/g
% ID/g Liver ([2]; 24 h after i.v. injection): 0.15 ± 0.0 % ID/g
% ID/g Lung ([2]; 24 h after i.v. injection): 0.18 ± 0.1 % ID/g
% ID/g Muscle ([2]; 24 h after i.v. injection): 0.05 ± 0.0 % ID/g
% ID/g Skin ([2]; 24 h after i.v. injection): 0.03 ± 0.0 % ID/g
% ID/g Spleen ([2]; 24 h after i.v. injection): 0.13 ± 0.0 % ID/g
% ID/g Thyroid ([2]; 24 h after i.v. injection): 1.93 ± 0.5 % ID/g
% ID/g Tumor ([2]; 24 h after i.v. injection): 9.77 ± 1.4 % ID/g
% ID/g Bladder ([2]; 48 h after i.v. injection): 0.08 ± 0.0 % ID/g
% ID/g Blood ([2]; 48 h after i.v. injection): 0.01 ± 0.0 % ID/g
% ID/g Heart ([2]; 48 h after i.v. injection): 0.01 ± 0.0 % ID/g
% ID/g Kidney ([2]; 48 h after i.v. injection): 0.05 ± 0.0 % ID/g
% ID/g Liver ([2]; 48 h after i.v. injection): 0.02 ± 0.0 % ID/g
% ID/g Lung ([2]; 48 h after i.v. injection): 0.02 ± 0.0 % ID/g
% ID/g Muscle ([2]; 48 h after i.v. injection): 0.0 ± 0.0 % ID/g
% ID/g Skin ([2]; 48 h after i.v. injection): 0.01 ± 0.0 % ID/g
% ID/g Spleen ([2]; 48 h after i.v. injection): 0.01 ± 0.0 % ID/g
% ID/g Thyroid ([2]; 48 h after i.v. injection): 0.0 ± 0.0 % ID/g
% ID/g Tumor ([2]; 48 h after i.v. injection): more than 9 % ID/g
% ID/g Tumor ([2]; 48 h after i.v. injection, listed as L19-TNFa fusion protein): 9.55 ± 1.7 % ID/g
tumor growth with respect to animals injected with PBS ([3]; 0.8 μg/g i.v. at day 12, followed 6 days (FIG. 23)): decrease in tumor growth
weight loss ([3]; throughout the experiment time (6 days)): less than 6%
immunohistochemical staining of blood vessels [4]: strongly stain blood vessels of glioblastoma tumor
accumulation of radiolabeled fusion protein in tumor blood vessels ([5]; F9 mouse tumor, microradiographic analysis): Accumulation of the radiolabeled fusion protein was shown
accumulation of radiolabeled fusion protein in vessels of other organs ([5]; organs of F9 tumor bearing mice): No accumulation
immunoreactivity after labelling [6]: more than 90%

Source: patent US8784824B2, “Compositions and methods for treatment of angiogenesis in pathological lesions” (Philogen S.p.A., priority 2000, dated 2014)
